Data reported in paper PMC2267068, “Comparative Analysis of Metal Binding Characteristics of Copper Chaperone Proteins, Atx1 and ATOX1” (Bioinorganic Chemistry and Applications, 2004).
Substitutions are numbered along the chain they refer to. Names may count otherwise. “And” between values parts separate entries of the source, which are not always exact repeats. Identical values can stand only once.

How the values were obtained:
[1] = target: T1, Atx1 (yeast copper chaperone) (yeast (Saccharomyces cerevisiae)), P38636; assay: SEC; Bio-Gel P-10 column (1.5 x 60 cm), 20 mM MES pH 6.0; reduced apoprotein (+DTT 3:1); 0.3, 0.5 and 0.3 mM ATOX1, C41S-ATOX1 and Atx1; size against myoglobin (18 kDa) and cytochrome C (12.5 kDa); conditions: remark: other sources report otherwise
T1 chain: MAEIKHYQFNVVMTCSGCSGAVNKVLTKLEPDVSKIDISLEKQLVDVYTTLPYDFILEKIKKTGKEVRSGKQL

[2] = target: T1, Atx1 (yeast copper chaperone) (yeast …); assay: cross-linking; Hg(II) + DTT; DMS or EGS for ATOX1, EGS for Atx1; products on SDS-PAGE; conditions: remark: other sources report otherwise
[3] = target: T1, Atx1 (yeast copper chaperone) (yeast …); assay: cross-linking; EGS (spacer arm 16.1 A), Cd(II) + DTT; products on SDS-PAGE; conditions: remark: other sources report otherwise
[4] = target: T1, Atx1 (yeast copper chaperone) (yeast …); assay: SEC; Bio-Gel P-10 column (1.5 x 60 cm), 20 mM MES pH 6.0; Cd(II) complex (metal 1:1, DTT 3:1); 0.3, 0.5 and 0.3 mM ATOX1, C41S-ATOX1 and Atx1; size against myoglobin (18 kDa) and cytochrome C (12.5 kDa); conditions: remark: other sources report otherwise
[5] = target: T2, ATOX1 (human copper chaperone), wild type (human), O00244; assay: SEC; Bio-Gel P-10 column (1.5 x 60 cm), 20 mM MES pH 6.0; reduced apoprotein (+DTT 3:1); 0.3, 0.5 and 0.3 mM ATOX1, C41S-ATOX1 and Atx1; size against myoglobin (18 kDa) and cytochrome C (12.5 kDa); conditions: remark: other sources report otherwise
T2 chain: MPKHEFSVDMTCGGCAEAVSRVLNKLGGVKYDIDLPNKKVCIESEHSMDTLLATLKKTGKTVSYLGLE

[6] = target: T2, ATOX1 (human copper chaperone), wild …; assay: cross-linking; DMS (spacer arm 11 A), Cd(II) + DTT; products on SDS-PAGE; conditions: remark: other sources report otherwise
[7] = target: T2, ATOX1 (human copper chaperone), wild …; assay: cross-linking; Hg(II) + DTT; DMS or EGS for ATOX1, EGS for Atx1; products on SDS-PAGE; conditions: remark: other sources report otherwise
[8] = target: T2, ATOX1 (human copper chaperone), wild …; assay: cross-linking; EGS (spacer arm 16.1 A), Cd(II) + DTT; products on SDS-PAGE; conditions: remark: other sources report otherwise
[9] = target: T2, ATOX1 (human copper chaperone), wild …; assay: cross-linking; metal complexes + DTT (which metals not told), DMS or EGS; faint higher bands on SDS-PAGE; conditions: remark: other sources report otherwise
[10] = target: T2, ATOX1 (human copper chaperone), wild …; assay: SEC; Bio-Gel P-10 column (1.5 x 60 cm), 20 mM MES pH 6.0; Cd(II) complex (metal 1:1, DTT 3:1); 0.3, 0.5 and 0.3 mM ATOX1, C41S-ATOX1 and Atx1; size against myoglobin (18 kDa) and cytochrome C (12.5 kDa); conditions: remark: other sources report otherwise
[11] = target: the molecule itself; assay: SEC; Bio-Gel P-10 column (1.5 x 60 cm), 20 mM MES pH 6.0; reduced apoprotein (+DTT 3:1); 0.3, 0.5 and 0.3 mM ATOX1, C41S-ATOX1 and Atx1; size against myoglobin (18 kDa) and cytochrome C (12.5 kDa)

B1: Atx1 (yeast copper chaperone), P38636 1-73 (natural protein)
chain: T1 chain
With B1 as the binder, how does the stoichiometry N [1] read?
The stoichiometry N was 2.

What about the stoichiometry N [2] of the same binder?
Its stoichiometry N is 2.

What about the stoichiometry N [3] of the same binder?
Its stoichiometry N is 2.

What about the stoichiometry N [4] of the same binder?
Its stoichiometry N is 2.

B2: ATOX1 (human copper chaperone), wild type, O00244 1-68 (natural protein)
chain: T2 chain
How did the stoichiometry N [5] turn out when B2 was run?
The stoichiometry N was 2.

What about the stoichiometry N [6] of the same binder?
Its stoichiometry N is 2.

And the stoichiometry N [7]?
Its stoichiometry N is 2.

And the stoichiometry N [8]?
The stoichiometry N was 2.

What about the stoichiometry N [9] of the same binder?
The stoichiometry N was 3 and 4.

What about the stoichiometry N [10] of the same binder?
The stoichiometry N was 2.

B3: C41S-ATOX1 (natural protein, human, UniProt O00244 1-68, looked up)
chain: T2 chain with C41S
notes: ATOX1 (HAH1), human copper chaperone, with the non-conserved Cys 41 mutated to Ser; Made on the ATOX1 construct in pGEX-6P-2 to imitate Atx1, which lacks this Cys; also called C41S-ATOXI; source: E. coli BL21 (DE3), GST fusion from pGEX-6P-2, purified, GST removed with PreScission protease; not shown: GST, N-terminal, cleaved
B3 was tested. Which “stoichiometry N” value [11] did it give?
Its value is 2.
